± gives the uncertainty stated by the source.
Assay: self-splicing fitness, log relative to wild type (ln ratio); higher = more splicing; Tetrahymena group I intron in knt gene, E. coli kanamycin selection, DiMSum; sequences stand for … in CUCUCU…GGAGGGAAAAGUUAUCAGGCAUGCACCUGGUAGCUAGUCUUUAAACCAAUAGAUUGCAUCGGUUUAAAAGGCAAGACCGUCAAAUUGCGGGAAAGGGGUCAACAGCCGUUCAGUACCAAGUCUCAGGGGAAACUUUGAGAUGGCCUUGCAAAGGGUAUGGUAAUAAGCUGACGGACAUGGUCCUAACCACGCAGCCAAGUCCUAAGUCAACAGAUCUUCUGUUGAUAUGGAUGCAGUUCACAGACUAAAUGUCGGUCGGGGAAGAUGUAUUCUUCUCAUAAGAUAUAGUCGGACCUCUCCUUAAUGGGAGCUAGCGGAUGAAGUGAUGCAACACUGGAGCCGCUGGGAACUAAUUUGUAUGCGAAAGUAUAUUGAUUAGUUUUGGAGUACUCGUGGUCG
Outline: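 The eight P1ex-region nucleotides of an intron in the knt kanamycin-resistance gene on pET-22b(+) were all randomised and the library put into E. coli BL21(DE3). Six replicate transformations were grown overnight at 37°C or 30°C on LB agar with or without 25 μg/mL kanamycin, together with 100 μg/mL carbenicillin, 50 μM IPTG and 0.2% rhamnose. Colonies were pooled and amplicon-sequenced on an Illumina HiSeq 2500. Fitness from DiMSum is the error-weighted combination of wild-type-normalised replicate fold changes, kanamycin over none.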

| Sequence | self-splicing fitness (ln) (30 °C) | self-splicing fitness (ln) (37 °C) |
| --- | --- | --- |
| AGAGAGCAAUAUUACGGACC | -2.79 ± 0.3 | -1.05 ± 0.33 |
| UUCCAGCAAUAUUACGGCAA | -0.0711 ± 0.1 | 0.362 ± 0.12 |
| GCUGAGCAAUAUUACGGCGA | -1.43 ± 0.16 | -1.56 ± 0.2 |
| AUAAAGCAAUAUUACGAGCC | -0.929 ± 0.14 | -1.35 ± 0.19 |
| AAGUAGCAAUAUUACGAGUU | -1.86 ± 0.098 | -0.204 ± 0.096 |
| AUAUAGCAAUAUUACGCACU | -0.015 ± 0.13 | -0.204 ± 0.16 |
| UGUUAGCAAUAUUACGGGUU | -4.27 ± 0.42 | -1.58 ± 0.17 |
| UCAUAGCAAUAUUACGAUCC |  | -1.7 ± 0.41 |
| CUGUAGCAAUAUUACGCUGC | -3.17 ± 0.3 |  |
| UGUUAGCAAUAUUACGCAGU | -3.62 ± 0.27 | -2.48 ± 0.27 |
| GCUGAGCAAUAUUACGACAG | -1.05 ± 0.31 |  |
| CCCAAGCAAUAUUACGGAAC | -3.54 ± 0.21 | -2.62 ± 0.25 |
| CCACAGCAAUAUUACGCCCC | -2.07 ± 0.27 | -2.2 ± 0.4 |
| UGAAAGCAAUAUUACGUCGU | -4.87 ± 0.36 | -1.38 ± 0.12 |
| ACCAAGCAAUAUUACGGCCU | -0.444 ± 0.072 | -0.31 ± 0.083 |
| CGCUAGCAAUAUUACGUCUU |  | -0.855 ± 0.16 |
| UAUGAGCAAUAUUACGUGAG | -2.91 ± 0.14 | -2.74 ± 0.23 |
| AGCGAGCAAUAUUACGUGGU | -3.2 ± 0.25 | -3.06 ± 0.22 |
| UCUAAGCAAUAUUACGUUAU | -3.25 ± 0.24 | -2.31 ± 0.27 |
| GGUCAGCAAUAUUACGUAAU | -0.42 ± 0.11 | 0.68 ± 0.14 |
| UAUCAGCAAUAUUACGAAGA | -0.93 ± 0.12 | -0.91 ± 0.13 |
| GUUUAGCAAUAUUACGUAAA | -2.64 ± 0.18 | -0.672 ± 0.18 |
| GUAGAGCAAUAUUACGUGUG | -0.928 ± 0.073 | -1.6 ± 0.12 |
| AAGCAGCAAUAUUACGGCAA | -0.0737 ± 0.06 | 0.139 ± 0.081 |
| CCUAAGCAAUAUUACGAAAA | -3.53 ± 0.28 | -2.44 ± 0.19 |

| Sequence | self-splicing fitness (ln) (30 °C) | self-splicing fitness (ln) (37 °C) |
| --- | --- | --- |
| UAUGAGCAAUAUUACGGCUC |  | -0.823 ± 0.41 |
| GUUAAGCAAUAUUACGAUUU | -0.759 ± 0.09 | -0.00651 ± 0.14 |
| AUAAAGCAAUAUUACGUUAG | -1.33 ± 0.067 | -0.504 ± 0.088 |
| GUACAGCAAUAUUACGAUAG | -3.23 ± 0.16 | -0.84 ± 0.13 |
| GGAGAGCAAUAUUACGUUAG | -3.5 ± 0.23 | -1.54 ± 0.41 |
| UUACAGCAAUAUUACGCUAC | -3.71 ± 0.22 | -1.96 ± 0.24 |
| CCCGAGCAAUAUUACGCCAC | -3.54 ± 0.26 | -2.84 ± 0.31 |
| ACUUAGCAAUAUUACGUAUC | -3.56 ± 0.22 | -2.37 ± 0.24 |
| ACCAAGCAAUAUUACGAGUG | -2.09 ± 0.052 | -1.14 ± 0.062 |
| UUCGAGCAAUAUUACGUAUA | -2.7 ± 0.33 | -2.78 ± 0.41 |
| AGUGAGCAAUAUUACGUCGU | -3.79 ± 0.2 | -2.07 ± 0.14 |
| CGUAAGCAAUAUUACGAGGC | -3.73 ± 0.32 | -1.99 ± 0.29 |
| GAUGAGCAAUAUUACGGAAC |  | 0.0424 ± 0.44 |
| ACCUAGCAAUAUUACGUACA | -1.31 ± 0.14 | -0.964 ± 0.17 |
| AUUGAGCAAUAUUACGAGGG | -2.87 ± 0.14 | -2.85 ± 0.29 |
| UACUAGCAAUAUUACGGCCG | 0.508 ± 0.14 | 0.00712 ± 0.17 |
| GGCCAGCAAUAUUACGCCUC | -0.497 ± 0.13 | -0.06 ± 0.15 |
| UCUUAGCAAUAUUACGCUUA |  | -1.22 ± 0.28 |
| UUGAAGCAAUAUUACGCGGC | -1.63 ± 0.13 | -0.671 ± 0.19 |
| UGUCAGCAAUAUUACGCAAU | -1.81 ± 0.14 | -2.24 ± 0.2 |
| AACGAGCAAUAUUACGGACC | -2.49 ± 0.15 | -1.55 ± 0.22 |
| GCGCAGCAAUAUUACGGCGA | -0.0713 ± 0.075 | -0.173 ± 0.089 |
| ACUUAGCAAUAUUACGCCAG | -2.16 ± 0.15 | -0.941 ± 0.17 |
| AAUUAGCAAUAUUACGAAGA | -1.25 ± 0.17 | -0.985 ± 0.16 |
| CGCAAGCAAUAUUACGUGUU | -3.48 ± 0.11 | -2.9 ± 0.14 |

| Sequence | self-splicing fitness (ln) (30 °C) | self-splicing fitness (ln) (37 °C) |
| --- | --- | --- |
| CCAGAGCAAUAUUACGGAAC | -2.32 ± 0.2 | -3.08 ± 0.36 |
| UAUAAGCAAUAUUACGAUGA | -0.333 ± 0.1 | 0.344 ± 0.13 |
| AUCGAGCAAUAUUACGACAG | -2.51 ± 0.12 | -3.22 ± 0.19 |
| UUUCAGCAAUAUUACGACAA | -0.0726 ± 0.12 | -0.913 ± 0.14 |
| ACUCAGCAAUAUUACGCGUC | -3.42 ± 0.19 | -2.06 ± 0.25 |
| CUUCAGCAAUAUUACGAAAA | -2.29 ± 0.2 | -3.03 ± 0.35 |
| UUUCAGCAAUAUUACGGUCG | -0.269 ± 0.074 | 0.418 ± 0.11 |
| CCAAAGCAAUAUUACGAAGC | -3.15 ± 0.36 |  |
| AUAGAGCAAUAUUACGUGUU | -3.73 ± 0.19 | -2.38 ± 0.18 |
| CCCAAGCAAUAUUACGAACA | -3.02 ± 0.27 | -3.04 ± 0.26 |
| UCAAAGCAAUAUUACGCUCU | -3.71 ± 0.27 | -2.69 ± 0.26 |
| GAGUAGCAAUAUUACGGUAA | -2.23 ± 0.18 | -1.25 ± 0.16 |
| GCAUAGCAAUAUUACGUAGU | -2.22 ± 0.15 | -1.51 ± 0.16 |
| UCUAAGCAAUAUUACGAAGA | -1.29 ± 0.14 | -0.678 ± 0.13 |
| CAUUAGCAAUAUUACGAGAC | -3.15 ± 0.46 | -1.57 ± 0.42 |
| CACGAGCAAUAUUACGUAUU | -4.05 ± 0.17 | -2.48 ± 0.13 |
| UACUAGCAAUAUUACGUUCA | -0.586 ± 0.08 | -0.193 ± 0.09 |
| GAGCAGCAAUAUUACGAUCC | -2.45 ± 0.19 | -0.494 ± 0.17 |
| AUUCAGCAAUAUUACGCGAG | -0.677 ± 0.065 | -0.126 ± 0.079 |
| UAGCAGCAAUAUUACGCCAG | -1.46 ± 0.13 | -0.751 ± 0.19 |
| CCCCAGCAAUAUUACGUAGA | -2.95 ± 0.12 | -2.7 ± 0.18 |
| CCUCAGCAAUAUUACGAUAA | -2.82 ± 0.16 | -3.35 ± 0.32 |
| UCGGAGCAAUAUUACGAUUC | -0.553 ± 0.26 | -0.938 ± 0.24 |
| UUAAAGCAAUAUUACGAAGC | -3.34 ± 0.32 | -2.25 ± 0.28 |
| GUUAAGCAAUAUUACGAGUC | -3.05 ± 0.12 | -1.86 ± 0.15 |

| Sequence | self-splicing fitness (ln) (30 °C) | self-splicing fitness (ln) (37 °C) |
| --- | --- | --- |
| AUGCAGCAAUAUUACGAAGC | -3.21 ± 0.19 | -0.72 ± 0.21 |
| CAACAGCAAUAUUACGCCGC | -4.57 ± 0.34 |  |
| GCUUAGCAAUAUUACGAGCG | -2.44 ± 0.26 | -1.1 ± 0.16 |
| GUCUAGCAAUAUUACGCCCU | -0.702 ± 0.36 | -0.472 ± 0.37 |
| GUCCAGCAAUAUUACGCGUC | -1.15 ± 0.088 | 0.346 ± 0.12 |
| GGUCAGCAAUAUUACGUCUU | 0.322 ± 0.078 | 0.402 ± 0.089 |
| AUUGAGCAAUAUUACGGGAC | -3.28 ± 0.42 |  |
| GUAAAGCAAUAUUACGCAUC | -1.36 ± 0.11 | -0.97 ± 0.15 |
| AACCAGCAAUAUUACGGCGG | -0.585 ± 0.059 | -0.164 ± 0.078 |
| GCUAAGCAAUAUUACGCUUA | -1.74 ± 0.26 | -3.17 ± 0.43 |
| GCCCAGCAAUAUUACGAGCG | -0.449 ± 0.067 | -1.17 ± 0.1 |
| UGAUAGCAAUAUUACGUGUA | -2.89 ± 0.18 | -1.38 ± 0.13 |
| GCCUAGCAAUAUUACGUGAU | -0.0579 ± 0.072 | 0.159 ± 0.079 |
| AAACAGCAAUAUUACGCCAU | -3.26 ± 0.17 | -2.42 ± 0.18 |
| UCAAAGCAAUAUUACGAAGU | -2.96 ± 0.16 | -2.39 ± 0.24 |
| UGCAAGCAAUAUUACGUUAU | -3.76 ± 0.15 | -1.3 ± 0.1 |
| GGAUAGCAAUAUUACGUAUG | -1.66 ± 0.28 | -0.951 ± 0.23 |
| CUACAGCAAUAUUACGCCCC | -2.86 ± 0.41 | -1.4 ± 0.35 |
| GUCAAGCAAUAUUACGUGAC | -5.1 ± 0.39 | -4.13 ± 0.32 |
| AUCUAGCAAUAUUACGCAUU | -1.48 ± 0.1 | -0.414 ± 0.1 |
| UAGAAGCAAUAUUACGUGUG | -0.994 ± 0.069 | -0.74 ± 0.084 |
| CAGAAGCAAUAUUACGGCGU | -2.01 ± 0.18 | -1.18 ± 0.18 |
| CCUCAGCAAUAUUACGUCUA | -3.41 ± 0.26 | -2.46 ± 0.28 |
